Experimental data reported in patent US20050113327.

Test system: Actin of lily pollen tubes

Aspergillus niger B1 extracellular RNase (RNase B1)
actin filaments distribution in lily pollen tubes (TRITC-phalloidin staining): in RNase-treated pollen tubes masses of actin were accumulated at the tip cell wall
lily pollen tube length after 1.5 h in vitro (FIG. 31; control 0.26 mm): Both RNase B1 and IAc-RNase B1 exhibited a clear inhibitory effect on pollen tube growth
lily pollen tube length after 2 h in vitro (control without RNase about 300 µm): reached only 160 µm in length

RNase B1 boiled for 30 minutes
lily pollen tube length after 2 h in vitro (control without RNase about 300 µm): Boiling or autoclaving the RNase yielded pollen tubes of 130 and 170 µm in length, respectively

autoclaved RNase B1
lily pollen tube length after 2 h in vitro (control without RNase about 300 µm): Boiling or autoclaving the RNase yielded pollen tubes of 130 and 170 µm in length, respectively

iodoacetylated (IAc-) RNase B1
lily pollen tube length after 1.5 h in vitro (FIG. 31; control 0.26 mm): IAc RNase B1 inhibits pollen tubes growth in a similar manner of non-modified RNase B1
